The text below walks through data of patent US10058586B2, “Use of human small leucine zipper protein in adipocyte differentiation procedure” (Korea University Research and Business Foundation, priority 2013, dated 2018).

Test [1] has as its target T1, PPARγ2 (Homo sapiens, UniProt P37231).
T1 sequence (P37231 1-505): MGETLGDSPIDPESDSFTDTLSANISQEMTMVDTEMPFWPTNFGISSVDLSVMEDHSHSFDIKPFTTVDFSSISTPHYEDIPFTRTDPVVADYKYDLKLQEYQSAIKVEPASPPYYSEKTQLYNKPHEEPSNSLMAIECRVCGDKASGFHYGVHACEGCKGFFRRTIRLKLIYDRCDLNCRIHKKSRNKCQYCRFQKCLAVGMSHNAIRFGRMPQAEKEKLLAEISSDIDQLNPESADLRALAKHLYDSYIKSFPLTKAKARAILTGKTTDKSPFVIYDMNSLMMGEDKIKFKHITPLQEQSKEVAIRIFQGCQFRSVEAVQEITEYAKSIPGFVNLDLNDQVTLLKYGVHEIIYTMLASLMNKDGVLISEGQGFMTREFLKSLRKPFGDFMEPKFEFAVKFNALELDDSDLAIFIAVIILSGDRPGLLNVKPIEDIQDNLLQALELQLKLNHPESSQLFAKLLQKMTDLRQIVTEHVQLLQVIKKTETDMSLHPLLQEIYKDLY
Put plainly: His pull-down of purified His-sLZIP with in vitro translated PPARγ2. Details: made in house; host or cells: PPARγ2: TNT in vitro translation system (Promega); His-sLZIP: E. coli BL21, pET-28a(+). In kind it is binding. The method, then:
sLZIP was cloned into a pET-28a(+) vector. His-sLZIP proteins were expressed in Escherichia coli (E. coli) BL21 cells using a T7 isopropyl-β-D-thiogalactopyranoside (IPTG)-inducible system. IPTG-induced cells were disrupted bysonification and cell lysates were clarified by centrifugation. His-sLZIP proteins were applied onto a nickel-nitrilotriacetic acid bead column (Bio-Rad, Richmond, Calif.). The column was washed with a great volume of a lysis buffer and 10 mM of imidazole, and eluted in a Ni-NTA elution buffer (Bio-Rad Laboratories, Hercules, Calif.). A fraction containing His-sLZIP proteins was dialyzed against 10% glycerol, and stored at −80° C. Protein purification was evaluated according to 10% SDS-PAGE/Coomassie blue staining and a purity of >98% in general was shown.
In order to examine whether the transcriptional activity of PPARγ2 is regulated by interaction with sLZIP, interaction between sLZIP and PPARγ2 was examined. […] A protein complex was analyzed in SDS-PAGE and then immunoblotted with specific antibodies (FIG. 2A). […] Proteins bound to the bead were analyzed in SDS-PAGE, and then immunoblotted with anti-PPARγ2 and anti-His antibodies (FIG. 2C). GFP-PPARγ2 and Flag-sLZIP constructs were expressed in C3H10T1/2 cells, and analyzed using mouse anti-Flag and Texas Red-labeled anti-mouse antibodies under a fluorescence microscope. […]

The target of test [2] is T1, PPARγ2. In words: FABP4 promoter luciferase analysis in preadipocytes from epididymal adipose tissues of sLZIP TG mice. In kind it is cell-based, mouse. The settings on record: adipocytes of sLZIP TG mice vs wild type mice, with or without 10 nM RZD. Details: expressed in transfected cells; host or cells: primary preadipocytes from epididymal adipose tissue of human-sLZIP transgenic mice. The source says: In order to generate human sLZIP transgenic (TG) mice, sLZIP genes were cloned into a pCMV-flag expression vector. The sLZIP TG mice were generated by Macrogen, Inc (Seoul, Korea). Transgenic founders were mated with wild type C57BL/6 mice to produce F1 heterozygotes. F1-F4 generations were genetically screened for transgenes at an age of 2 weeks old. The following two primers were used to amplify genomic DNA in order to identify wild type and TG mice: [NT] and 5'-[NT]3.' Adipocyte differentiation is a well-regulated procedure. PPARγ2 is a major regulator of adipogenesis, is highly expressed during adipocyte differentiation, and regulates expression of genes involved in adipogenesis. An effect of sLZIP on adipogenesis in vivo was examined. For this purpose, in order to produce human sLZIP transgenic mice, sLZIP genes were cloned in a pCMV-flag expression vector. The sLZIP TG mice were produced in Macrogen, Inc (Seoul, Korea) (FIG. 8A). Preadipocytes were isolated from epididymal adipose tissues of sLZIP TG mice. […] A promoter activity was measured according to luciferase analysis (FIG. 8B). […] Total RNA was extracted from the cells, and an mRNA expression level of mouse LZIPs was measured using RT-PCR analysis. […] Total RNA was isolated from the cells, and an mRNA expression level of mouse LZIPs was measured using RT-PCR (FIG. 9C) and real-time PCR (FIG. 9D).

B1: sLZIP: human small leucine-zipper protein, isoform of LZIP, 354 amino acids, no transmembrane domain; GenBank FJ263669, SEQ ID NO: 1 (protein, listed as Homo sapiens)
chain: MELELDAGDQDLLAFLLEESGDLGTAPDEAVRAPLDWALPLSEVPSDWEVDDLLCSLLSPPASLNILSSSNPCLVHHDHTYSLPRETVSMDLESESCRKEGTQMTPQHMEELAEQEIARLVLTDEEKSLLEKEGLILPETLPLTKTEEQILKRVRRKIRNKRSAQESRRKKKVYVGGLESRVLKYTAQNMELQNKVQLLEEQNLSLLDQLRKLQAMVIEISNKTSSSSMYSSDTRGSLPAEHGVLSRQLRALPSEDPYQLELPALQSEVPKDSTHQWLDGSDCVLQAPGNTSCLLHYMPQAPSAEPPLEWPFPDLFSEPLCRGPILPLQANLTRKGGWLPTGSPSVILQDRYSG
On to B1, for which the “direct interaction with PPARγ2 (His pull-down)” value in test [1] is recorded as “PPARγ2 was directly bound to sLZIP”. Moreover, the “transcriptional activity of PPARγ2 (luciferase)” value in test [2] was “decreased in the adipocytes of the sLZIP TG mice more than in wild type mice”.
